Laboratory results from paper PMC5503811.

Key:
ALDH7A1 G255D (human) = assay: AUC
[1] = biological target: wild-type human aldehyde dehydrogenase 7A1 (human); assay: AUC

Row | Ka (ALDH7A1 G255D (human)) [M⁻¹] | stoichiometry N [1] | Substance
1 | 750000 | – | ALDH7A1 G255D (enzyme)
2 | – | 4 | wild-type human aldehyde dehydrogenase 7A1 (enzyme)
